Changes are numbered by the printed parent chain.
B1: 1.1b-2GS-1.1a (other)
chain: QVQLVESGGGLVKPGGSLRLSCAASGFTFSDYTMTWMRQAPGKGLEWVSYISTGGTIKYYTDSVKGRFTISRDNAKNSLYLQMNSLRADDTAVYYCAREAPLRLGESPHDAFDIWGQGTMVTVSSGGGGSGGGGSEVQLLESGGGSVQPGRSLRLSCAASGFTFDDHAMHWVRQAPGKGLEWVSGISWNSGSMGYADSVKDRFTISRDNAKSSLYLQMNSLRAEDTALYYCVREKGPGLTGSTADYYGLDVWGQGTMVTVSS
notes: Biparatopic VH-linker-VH; His tag implied by the assays; not in the chain
B2: 1.92b-4GS-1.99a (other)
chain: EVQLVESGGGLVKPGGSLRLSCAASGFTFSDESMTWMRQAPGKGLEWVSYISSGGGVKFYADSVKGRFTISRDNAKNSLYLQMNSLRAEDTAVYYCAREAPLRLGESPHDAFDISGQGTMVTVSSGGGGSGGGGSGGGGSGGGGSEVQLVESGGGVVRPGGSLRLSCAASGFTFDDYAMSWVRQAPGKGLEWVSGITWNGGSTGYADSVKGRFTISRDNAKNSLYLQMNSLRAEDTALYYCVRDKYSYAWSYDGFDIWGQGTMVTVSS
B3: 1.92b-4GS-1.103a (other)
chain: B2 chain with G211D, G254D
B4: 1.77b-1GS-1.21a (other)
chain: EVQLVESGGGLVKPGGSLRLSCAASGFTFSDSSMTWMRQAPGKGLEWVSYISSGGGVKFYTDSVKGRFTISRDNAKNSLYLQMNSLRAEDTAVYYCAREAPLRLGESPHDAFDISGQGTMVTVSSGGGGSEVQLVESGGGLVQPGRSLRLSCAASGFTFDDYAMHWVRQAPGKDLEWVSGISWNGGSMGYAASVKGRFTISRDNAKNSLYLQMNSLRAEDTALYYCVREKGPGLTGSTADYYGLDVWGQGTMVTVSS
B5: 1.77b-2GS-1.21a (other)
chain: EVQLVESGGGLVKPGGSLRLSCAASGFTFSDSSMTWMRQAPGKGLEWVSYISSGGGVKFYTDSVKGRFTISRDNAKNSLYLQMNSLRAEDTAVYYCAREAPLRLGESPHDAFDISGQGTMVTVSSGGGGSGGGGSEVQLVESGGGLVQPGRSLRLSCAASGFTFDDYAMHWVRQAPGKDLEWVSGISWNGGSMGYAASVKGRFTISRDNAKNSLYLQMNSLRAEDTALYYCVREKGPGLTGSTADYYGLDVWGQGTMVTVSS
B6: 1.77b-4GS-1.21a (other)
chain: EVQLVESGGGLVKPGGSLRLSCAASGFTFSDSSMTWMRQAPGKGLEWVSYISSGGGVKFYTDSVKGRFTISRDNAKNSLYLQMNSLRAEDTAVYYCAREAPLRLGESPHDAFDISGQGTMVTVSSGGGGSGGGGSGGGGSGGGGSEVQLVESGGGLVQPGRSLRLSCAASGFTFDDYAMHWVRQAPGKDLEWVSGISWNGGSMGYAASVKGRFTISRDNAKNSLYLQMNSLRAEDTALYYCVREKGPGLTGSTADYYGLDVWGQGTMVTVSS
B7: 1.64b-4GS-1.1a (other)
chain: B6 chain with T61A, E89D, V150L, L156S, Y177H, D189G, G200S, A207D, G211D, N222S
B8: 1.1b-4GS-1.1a (other)
chain: QVQLVESGGGLVKPGGSLRLSCAASGFTFSDYTMTWMRQAPGKGLEWVSYISTGGTIKYYTDSVKGRFTISRDNAKNSLYLQMNSLRADDTAVYYCAREAPLRLGESPHDAFDIWGQGTMVTVSSGGGGSGGGGSGGGGSGGGGSEVQLLESGGGSVQPGRSLRLSCAASGFTFDDHAMHWVRQAPGKGLEWVSGISWNSGSMGYADSVKDRFTISRDNAKSSLYLQMNSLRAEDTALYYCVREKGPGLTGSTADYYGLDVWGQGTMVTVSS
notes: Biparatopic VH-linker-VH
B9: 1.1a-4GS-1.57b (other)
chain: EVQLLESGGGSVQPGRSLRLSCAASGFTFDDHAMHWVRQAPGKGLEWVSGISWNSGSMGYADSVKDRFTISRDNAKSSLYLQMNSLRAEDTALYYCVREKGPGLTGSTADYYGLDVWGQGTMVTVSSGGGGSGGGGSGGGGSGGGGSQVQLVESGGGLVKPGGSLRLSCAASGFTFSDNSMTWMRQAPGKGLEWVSYISSGGGVIFYADSVKGRFTISRDNAKNSLYLQMNSLRADDTAVYYCAREAPLRLGESPHDAFDISGQGTMVTVSS
B10: 1.77b-4GS-1.77b (other)
chain: EVQLVESGGGLVKPGGSLRLSCAASGFTFSDSSMTWMRQAPGKGLEWVSYISSGGGVKFYTDSVKGRFTISRDNAKNSLYLQMNSLRAEDTAVYYCAREAPLRLGESPHDAFDISGQGTMVTVSSGGGGSGGGGSGGGGSGGGGSEVQLVESGGGLVKPGGSLRLSCAASGFTFSDSSMTWMRQAPGKGLEWVSYISSGGGVKFYTDSVKGRFTISRDNAKNSLYLQMNSLRAEDTAVYYCAREAPLRLGESPHDAFDISGQGTMVTVSS
B11: 1.25b (VHH)
VHH: QVTLKESGGGLVKPGGSLRLSCAASGFTFSDYYMSWFRQAPGKEREWISFISSSGSTTYYADSVKGRFTISRDNAKNSLYLQMNSLRAEDTAVYYCAREAPLRLGESPHDAFDFWGQGTMVTVSS
B12: 1.26b (VHH)
VHH: QVTLKESGGGLVKPGGSLRLSCAASGFTFSDNSMSWIRQAPGKGLEWVSYISSSGSTIYYADSVKGRFTISRDNAKNSLYLQMNTLRAEDTAVYYCAKEAPLRLGESPHDAFDIWGQGTMVTVSS
B13: 1.28b (VHH)
VHH: QITLKESGGGLVKPGGSLRLSCAASGFTFSDYDMYWIRQAPGKGLEWVSYISRGGSVTYYADSVKGRFTISRDNAKNALYLQMNSLRAEDMAVYFCATEAPLRLGETPHAAFDIWGQGTMVTVSS
B14: 1.33b (VHH)
VHH: B13 VHH with I37V
B15: 1.40b (VHH)
VHH: EVQLVESGGGLVKPGGSLRLSCAASGFTFSDSSMSWIRQAPGRGLEWISYISSGGGIIYYTDSVKGRFTISRDNAKNSLYLQMNSLRVEDTAVYYCAKEAPLRLGESPHDAFDIWGHGTMVTVSS
B16: 1.1b (VHH)
VHH: QVQLVESGGGLVKPGGSLRLSCAASGFTFSDYTMTWMRQAPGKGLEWVSYISTGGTIKYYTDSVKGRFTISRDNAKNSLYLQMNSLRADDTAVYYCAREAPLRLGESPHDAFDIWGQGTMVTVSS
notes: also called Humabody 1.1b

What follows are binders tested against T1, human PD-1 expressed on cells (CHO TREX human PD1 cell line, full-length human PD-1 sequence) (human, UniProt Q15116 21-288) (assay: cell-based or functional assay).
T1 sequence (Q15116 21-288): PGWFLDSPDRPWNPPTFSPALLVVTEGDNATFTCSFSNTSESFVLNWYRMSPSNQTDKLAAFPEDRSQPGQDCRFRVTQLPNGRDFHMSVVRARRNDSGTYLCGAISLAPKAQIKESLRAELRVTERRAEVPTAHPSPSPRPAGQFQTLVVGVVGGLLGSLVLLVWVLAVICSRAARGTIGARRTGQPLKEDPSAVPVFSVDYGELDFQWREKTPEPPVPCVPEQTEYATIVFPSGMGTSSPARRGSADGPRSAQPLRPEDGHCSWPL
For B1, the “EC50 (M), NFAT-Luciferase reporter gene assay” value (shortened to “EC50 (M)”) was 7.2e-09 M.
In the case of B2, the “EC50 (M)” value is reported as 1e-09 M.
B3 was tested, and the “EC50 (M)” value was 1.2e-09 M.
For B4, the “EC50 (M)” value was 2.3e-09 M.
For B5, the “EC50 (M)” value was 2.1e-09 M.
With B6 the “EC50 (M)” value was 3.2e-09 M.
B7 was tested, and the “EC50 (M)” value was 3e-09 M.
For B8, the “EC50 (M)” value was 8.5e-09 M.
For B9, the “EC50 (M)” value was 3.9e-09 M.

Biological target: T1, human PD-1 expressed on cells (CHO TREX …)
Assay: cell-based or functional assay
Remark: another data set of the same source
For B4, the “EC50 uM, PathHunter Checkpoint assay (PD-1 signalling)” value (“EC50 uM, PathHunter Checkpoint assay” below) was 0.00059 µM and the “Max. % increase in response over baseline, PathHunter Checkpoint assay” value (“Max. % increase in response” below) was 1330%.
B6 was tested, and the “EC50 uM, PathHunter Checkpoint assay” value was 0.0005 µM and the “Max. % increase in response” value was 253%.
B10 was tested, and the “EC50 uM, PathHunter Checkpoint assay” value was 0.0002 µM and the “Max. % increase in response” value was 48.5%.

The binders below were run against T1, human PD-1 expressed on cells (CHO TREX …) (assay: worded summary of the screens).
B11: binds.
B12: binds.
B13: binds.
B14: binds.
B15: binds.

These binders were tested against T1, human PD-1 expressed on cells (CHO TREX …) (assay: FMAT: inhibition of human Fc tagged human PD-L1 (400 pM) binding to CHO human PD-1 cells).
Method: Purified VH were serially diluted in FMAT assay buffer and tested for binding to CHO human PD-1 cells as described above and for inhibition of human PD-L1/PD-L2 binding to CHO human PD-1 cells. All reagents and serially diluted VH were prepared in FMAT assay buffer. VH, buffer (total binding controls) or excess competitor (non-specific binding control) were incubated with 400 pM human Fc tagged human PD-L1 or 100 pM PDL-2, 4 nM anti human Fc-Alexa Fluor-488 and 2000 per well CHO human PD-1 DRAQ5 stained cells in a 384 well black clear-bottomed assay plates. Plates were incubated for 2 hours at room temperature then fluorescence measured in the FL2 (502 nm-537 nm) and FL5 (677-800 nm) channels on the Mirrorball plate reader (TTP) following excitation at 488 nm and 640 nm. Data was expressed as a % of the total binding control (i.e. % control) after subtraction of the background signal determined from the non-specific binding control wells. The results are shown in FIG. 5 and in Tables 8 and 9 below.
Binder B8 has an IC50 of 5.6 nM.
With B16 the IC50 was 23 nM.

Each binder was assayed against T2, recombinant human PD-1 Fc chimera (human, UniProt Q15116 25-167) (assay: SPR Biacore T200, single cycle kinetics, human PD-1-hu Fc amine coupled to CM5, 1:1 model).
T2 construct: Bought protein (R&D 1086-PD in the HTRF assay); also called human PD-1-hu Fc; huPD-1Fc; not shown: human Fc
T2 sequence (Q15116 25-167 limits assumed, stated change not applied): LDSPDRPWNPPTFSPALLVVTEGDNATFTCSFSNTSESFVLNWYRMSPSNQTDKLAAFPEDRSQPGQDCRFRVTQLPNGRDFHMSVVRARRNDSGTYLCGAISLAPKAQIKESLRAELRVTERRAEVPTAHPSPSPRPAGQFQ
Method: Binding kinetics of certain humabodies binding to human PD-1-hu Fc were measured by surface plasmon resonance (SPR) technology using Biacore T200 instrument (GE Healthcare). Recombinant human PD-1-hu Fc was immobilized by standard amine coupling to CM5 sensors chip (GE Healthcare) using 0.1 mg/ml solution of antigen in 10 mM sodium acetate at pH 5.5. For the reference flow cell, a blank immobilisation was carried out. Single cycle kinetics assays were used to study the interaction, a five point, three-fold dilution series of each Humabody® VH was made with a top concentration of 30 nM. The binding kinetics were followed by flowing the Humabody® VH over the chip surface in HBS EP+ buffer at a flow rate of 30 μl/min. The contact time for each of the association steps was 180 seconds and the dissociation step was varied between 1200-3600 seconds. The data was fitted to a 1:1 binding model after double reference subtraction using the Biacore T200 Evaluation software.
With B1 the Kd was 0.0346 nM, the koff was 1.08e-05 s⁻¹ and the kon was 313000 M⁻¹ s⁻¹.
B8 was tested, and the Kd was 0.035 nM, the koff was 1.1e-05 s⁻¹ and the kon was 316000 M⁻¹ s⁻¹.

Reference: US20220306744A1 (CRESCENDO BIOLOGICS, published 2022)
